From patent US8715970B2, “Enzymatically catalyzed method of preparing mono-acylated polyols” (BASF SE, priority 2009, dated 2014)
Substitutions are numbered along the chain they refer to. Numbers in names are those of the source.

B1: WT: non-mutated Candida antarctica lipase B (CALB), SEQ ID NO: 2, immobilized on carrier beads (protein, listed as Candida antarctica)
chain: LPSGSDPAFSQPKSVLDAGLTCQGASPSSVSKPILLVPGTGTTGPQSFDSNWIPLSAQLGYTPCWISPPPFMLNDTQVNTEYMVNAITTLYAGSGNNKLPVLTWSQGGLVAQWGLTFFPSIRSKVDRLMAFAPDYKGTVLAGPLDALAVSAPSVWQQTTGSALTTALRNAGGLTQIVPTTNLYSATDEIVQPQVSNSPLDSSYLFNGKNVQAQAVCGPLFVIDHAGSLTSQFSYVVGRSALRSTTGQARSADYGITDCNPLPANDLTPEQKVAAAALLAPAAAAIVAGPKQNCEPDLMPYARPFAVGKRTCSGIVTP
modifications: immobilized on carrier beads
B2: T40A: CALB mutant with single mutation Thr40Ala (SEQ ID NO: 4) (protein)
chain: B1 chain with T40X
modifications: T40 Mutant

Columns and labels:
Type in all cases: biochemical
[1] = Enzyme-catalyzed acylation of 2-methyl-1,3-propanediol with ethyl acetate as acyl donor (Example 2); details: for Conversion at 3:1 (monoester:diester) / Maximum monoester yield: 2-Me-1,3-propanediol 20 mM in ethyl acetate; for Maximum monoester yield: 29° C.
Procedure: (§1) Each diol was dissolved to a concentration of 20 mM together with 5 mM of 3-hexanone in ethyl acetate, ≧99% from Fluka, which was used as acyl donor and solvent. Reactions were started by adding 4 ml reaction solution to 20 mg enzyme carrier beads loaded with either wild-type or T40A mutated CALB. Reactions were run at 29° C. on a HLC rotating thermo block. Aliquots of 50 μl were taken, filtered through wool in a Pasteur pipette and diluted with 50 μl ethyl acetate prior to analysis. The 3-hexanon used as internal standard were present in the reaction solution throughout both reaction and analysis.
(§2) 5 mM 3-hexanone was used as internal standard in the reaction mixtures together with 20 mM diol. Aliquots were taken during the reaction by taking 50 μl of reaction sample. The samples were filtered though wool together with 50 μl ethyl acetate, thereby any remaining enzyme were removed and the reaction samples were diluted by a factor of 2 prior to analysis.
(§3) The reactions catalyzed by the T40A-mutant were rerun with 100 mg enzyme carrier beads for determination of maximum monoester yield. The reactions with 2-methyl-1,3-propanediol and 2-phenyl-1,3-propanediol were rerun at 100 mM concentration of diol and 50 mg enzyme carrier beads, both with CALB wild type and CALB T40A-mutant. This was done in order to determine the enantiomeric excess.
(§4) All reactions were analyzed on GC, Hewlett Packard 5890 series II. Two different 25 m×0.32 mm WCOT fused silica columns were used, depending on the different substrates and products that were analyzed. A polar GC-column with CP Chirasil-Dex CB coating was used for the reactions with 1,2-ethanediol and 1,3-propanediol. A non-polar GC-column with CP-SIL 5CB coating was used for the reactions with 1,4-butanediol, 2-methyl-1,3-propanediol and 2-phenyl-1,3-propanediol.
(§5) The response factor for each diol was determined in relationship to 3-hexanone. When all diol and mono-ester had converted to di-ester, the response factor for the di-ester could be determined in relationship to […]. The concentration of mono-ester in each reaction was determined by subtracting the concentration of di-ester from the starting concentration of diol.
(§6) A great difference in concentration between acyl donor and diol was accomplished in the reactions by using ethyl acetate as solvent and acyldonor and a diol concentration of 20 mM. Therefore the reactions was considered to irreversible, following the reaction scheme:
(§7) [formula] A, B and C corresponds to diol, monoester and diester, respectively. k1 and k2 respectively corresponds to the reaction rates of the acylation of diol and monoester.
(§8) The reaction rates are dependent on enzyme concentrations and the kcat/KM towards the substrates. By fitting the concentrations measured over time into the equations and using the enzyme concentration determined by active site titration, the following results were obtained.

[2] = Acylation of 1,4-butanediol in competition with 1-butanol (Example 4)
Procedure: Additionally, 1-butanol, ≧99.5% from Riedel-de Haën, was used as a competing substrate.
25 mM decane ≧98% from Fluka, was used as internal standard.
Two different acyl donors were used:
Ethyl acetate, ≧99% from Fluka, used as both solvent and acyl donor
1 M Vinyl butyrate, >99% from Fluka, together with in MTBE, 99.5% from Lab-Scan, used as solvent.
Each diol was dissolved to a concentration of 100 mM together with 25 mM of decane in ethyl acetate, ≧99% from Fluka, used as acyl donor and solvent. Reactions were started by adding 3 ml reaction solution to 10 mg enzyme carrier beads loaded with wild-type CALB or 20 mg carrier beads loaded with T40A mutated CALB. Reactions were run at 29° C. in a temperature bath consisting of a HETO thermostat coupled to a Bom-roerder combined temperature bath and magnetic stirrer. 25 mM decane was used as internal standard were present in the reaction solution throughout both reaction and analysis. Aliquots of 60 μl were taken, filtered through wool in a Pasteur pipette together with 540 μl ethyl acetate prior to analysis. The filtration through wool removed any remaining enzyme from the reaction solution, and the reaction samples were diluted by a factor of 10 prior to analysis.
as §4, with “1,2-ethanediol.” for “1,2-ethanediol and 1,3-propanediol.”, “1,4-butanediol.” for “1,4-butanediol, 2-methyl-1,3-propanediol and 2-phenyl-1,3-propanediol.”
as §5, with “decane.” for “3-hexanone.”

[3] = Enzyme-catalyzed acylation of 1,4-butanediol with ethyl acetate as acyl donor (Example 2); details: for Conversion at 3:1 (monoester:diester) / Conversion at 9:1 (monoester:diester) / Maximum monoester yield: 1,4-butanediol 20 mM in ethyl acetate; for Maximum monoester yield: 29° C.
Procedure: as §1, §2, §3, §4, §5, §6, §7, §8

[4] = Enzyme-catalyzed acylation of 1,3-propanediol with ethyl acetate as acyl donor (Example 2); details: for Conversion at 3:1 (monoester:diester) / Conversion at 9:1 (monoester:diester) / Maximum monoester yield: 1,3-propanediol 20 mM in ethyl acetate; for Maximum monoester yield: 29° C.
Procedure: as §1, §2, §3, §4, §5, §6, §7, §8

[5] = Enzyme-catalyzed acylation of 2-methyl-1,3-propanediol with vinyl butyrate as acyl donor (Example 3); details: 2-methyl-1,3-propanediol 10 mM, 200 mM vinyl butyrate in MTBE, 29° C.
Procedure: (§9) Each diol was dissolved to a concentration of 10 mM together with 2 mM of decane ≧98% from Fluka and 200 mM vinyl butyrate >99% from Fluka in MTBE 99.5% from Lab-Scan, which was used as acyl donor and solvent. Reactions were started by adding 4 ml reaction solution to 20 mg enzyme carrier beads loaded with either wild-type or T40A mutated CALB. Reactions were run at 29° C. on a HLC rotating thermo block. Aliquots of 50 μl were taken, filtered through wool in a Pasteur pipette and diluted with 50 μl ethyl acetate prior to analysis. The decane used as internal standard were present in the reaction solution throughout both reaction and analysis.
(§10) All reactions were analyzed on GC, Hewlett Packard 5890 series II. A 25 m×0.32 mm WCOT fused silica non-polar GC-column with CP-SIL 5CB coating was used for the reactions.
as §5, with “decane.” for “3-hexanone.”

[6] = Enzyme-catalyzed acylation of 1,4-butanediol with vinyl butyrate as acyl donor (Example 3); details: 1,4-butanediol 10 mM, 200 mM vinyl butyrate in MTBE, 29° C.
Procedure: as §9, §10
as §5, with “decane.” for “3-hexanone.”

[7] = Enzyme-catalyzed acylation of 1,2-ethanediol with ethyl acetate as acyl donor (Example 2); details: for Maximum monoester yield: 1,2-ethanediol 20 mM in ethyl acetate (acyl donor and solvent), 29° C.; for Conversion at 3:1 (monoester:diester) / Conversion at 9:1 (monoester:diester): 1,2-ethanediol 20 mM in ethyl acetate; for Conversion at 3:1 (monoester:diester): product distribution 75%; for Conversion at 9:1 (monoester:diester): product distribution 90%
Procedure: as §1, §2, §3, §4, §5, §6, §7, §8

[8] = 2-methyl-1,3-propanediol, ethyl acetate

| Molecule | Conversion at 3:1 (monoester:diester) [1] [%] | Maximum monoester yield [1] [%] | Selectivity diol/monoester [1, 8] | Initial reaction rates ([2]; ethyl acetate) [mol/g/min] | Initial reaction rates ([2]; vinyl butyrate) [mol/g/min] | Conversion at 3:1 (monoester:diester) [3] [%] | Conversion at 9:1 (monoester:diester) [3] [%] | Maximum monoester yield [3] [%] | Conversion at 3:1 (monoester:diester) [4] [%] | Conversion at 9:1 (monoester:diester) [4] [%] | Maximum monoester yield [4] [%] | Maximum monoester yields [5] [%] | Maximum monoester yields [6] [%] | Maximum monoester yield [7] [%] | Conversion at 3:1 (monoester:diester) [7] [%] | Conversion at 9:1 (monoester:diester) [7] [%] | Selectivity diol/monoester ([7]; 1,2-ethanediol, ethyl acetate) | other results |
| --- | --- | --- | --- | --- | --- | --- | --- | --- | --- | --- | --- | --- | --- | --- | --- | --- | --- | --- |
| B1 | 30 | 42 | 1.5 | 0.065 | 0.16 | <5 | <5 | 25 | 19 | 10 | 33 | 34 | 25 | 43 | 17 | <9 | 1.9 | Selectivity diol/monoester ([3]; 1,4-butanediol, ethyl acetate, listed as wild type): 0.63; Selectivity diol/monoester ([3]; 1,4-butanediol, ethyl acetate, listed as wild type CALB): 0.6; Selectivity diol/monoester ([4]; 1,3-propanediol, ethyl acetate, listed as wild type): 0.94; Selectivity diol/monoester ([4]; 1,3-propanediol, ethyl acetate, listed as wild type CALB): 0.9; Maximum monoester yield ([7]; listed as wild type): 43%; Conversion at 3:1 (monoester:diester) ([7]; listed as wild type): 17%; Conversion at 9:1 (monoester:diester) ([7]; listed as wild type): 9% |
| B2 | 55 | 55 | 2.6 | 0.0008 | 0.016 | 64 | 26 | 49 | 22 | 19 | 50 | 56 | 44 | 77 | 99 | 78 | 7.7 | Selectivity ratio diol/monoester T40A/WT [1, 8]: 1.7; Selectivity diol/monoester ([1]; 2-methyl-1,3-propanediol, ethyl acetate, listed as T40A CALB): 2.5; Rate ratio, T40A/WT ([2]; ethyl acetate): 1.2%; Selectivity towards diol over 1-butanol, compared with wild type CALB ([2]; ethyl acetate as acyl donor and solvent (FIG. 9B)): higher; Rate ratio, T40A/WT ([2]; vinyl butyrate): 9.6%; Selectivity towards diol over 1-butanol, compared with wild type CALB ([2]; vinyl butyrate, MTBE (FIG. 10B)): higher; Selectivity diol/monoester ([3]; 1,4-butanediol, ethyl acetate): 1.8; Selectivity ratio diol/monoester T40A/WT ([3]; 1,4-butanediol, ethyl acetate): 2.9; Selectivity diol/monoester ([3]; 1,4-butanediol, ethyl acetate, listed as T40A CALB): 1.9; Selectivity diol/monoester ([4]; 1,3-propanediol, ethyl acetate): 2.4; Selectivity ratio diol/monoester T40A/WT ([4]; 1,3-propanediol, ethyl acetate): 2.6; Conversion at 3:1 (monoester:diester) ([7]; listed as T40A CALB): 99%; Conversion at 9:1 (monoester:diester) ([7]; listed as T40A CALB): 78%; Selectivity ratio diol/monoester T40A/WT ([7]; 1,2-ethanediol, ethyl acetate): 4.0; Selectivity diol/monoester ([7]; 1,2-ethanediol, ethyl acetate, listed as T40A CALB): 7.6 |
